Assay [1] deals with T1, factor inhibiting HIF-1 (FIH-1), full-length (human, UniProt Q9NWT6 1-349). As to the kind of experiment: ITC; -αKG, +EDTA. (In general: In ITC the heat of successive injections is recorded.)
Assay [2] concerns the target T1, factor inhibiting HIF-1 (FIH-1), …. Nature of the assay: ITC; +αKG, -EDTA.
Assay [3] has the same target. Nature of the assay: ITC; -αKG, -EDTA.
The target is the same in assay [4]. As to the kind of experiment: ITC; +αKG, +EDTA.

T1 sequence (Q9NWT6 whole entry): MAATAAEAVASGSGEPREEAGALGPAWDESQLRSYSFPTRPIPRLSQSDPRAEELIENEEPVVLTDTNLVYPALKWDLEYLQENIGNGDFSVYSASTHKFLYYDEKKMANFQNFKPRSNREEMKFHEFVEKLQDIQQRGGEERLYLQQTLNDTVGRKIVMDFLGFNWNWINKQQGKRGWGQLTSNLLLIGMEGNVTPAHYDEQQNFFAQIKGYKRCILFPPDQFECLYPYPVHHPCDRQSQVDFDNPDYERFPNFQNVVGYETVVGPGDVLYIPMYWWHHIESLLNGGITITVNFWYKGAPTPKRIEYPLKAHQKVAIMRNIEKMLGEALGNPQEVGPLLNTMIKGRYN

B1: Mint3NT, N-terminal fragment (1–214) of Mint3 (domain or fragment)
chain: MDFPTISRSPSGPPAMDLEGPRDILVPSEDLTPDSQWDPMPGGPGSLSRMELDESSLQELVQQFEALPGDLVGPSPGGAPCPLHIATGHGLASQEIADAHGLLSAEAGRDDLLGLLHCEECPPSQTGPEEPLEPAPRLLQPPEDPDEDSDSPEWVEGASAEQEGSRSSSSSPEPWLETVPLVTPEEPPAGAQSPETLASYPAPQEVPGPCDHED
Turning to B1, the Kd (in general, the free concentration of one partner at which half of the binding sites on the other are occupied at equilibrium, for simple one-to-one binding) in assay [1] worked out at 8.1 µM; in assay [2], 1 µM; in assay [3], 3.4 µM; in assay [4] it was 2.2 µM.

The values above are taken from publication PMC8571082 (2021).
